One molecule from patent KR20120134547A can be followed below.

For the assay, the target named is TAB-XC154 자가면역항체. Briefly: competition: XC154 antibody (100 ng) pre-incubated with 10^11 or 10^12 XC154p1 phage, then flow cytometry on HepG2 or LnCap-LN3 cells.

Bridge positions count the residues as written; N and C are the ends. Ends that are not written are not given here. A value given as a limit tells only on which side of the number the result lay.

B1: XC154p1 에피토프 발현 파아지 (…) (peptide)
peptide: CLPSWFHRC
modifications: disulfide 1-9 (inferred); also: displayed on phage
The molecule B1 returned a percent inhibition of over 90%.
